The target of this test is recombinant human SDF1 (free SDF1) (human, UniProt P48061-2 22-89). The test can be described thus: SPR. (In general: SPR reads the build-up and loss of mass on a sensor chip optically.)
recombinant human SDF1 (free SDF1), sequence (P48061 22-89): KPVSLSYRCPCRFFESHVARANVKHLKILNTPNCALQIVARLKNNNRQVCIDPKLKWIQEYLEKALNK

B1: recombinant human CXCR4 (receptor, UniProt P61073 1-352, looked up)
chain: MEGISIYTSDNYTEEMGSGDYDSMKEPCFREENANFNKIFLPTIYSIIFLTGIVGNGLVILVMGYQKKLRSMTDKYRLHLSVADLLFVITLPFWAVDAVANWYFGNFLCKAVHVIYTVNLYSSVLILAFISLDRYLAIVHATNSQRPRKLLAEKVVYVGVWIPALLLTIPDFIFANVSEADDRYICDRFYPNDLWVVVFQFQHIMVGLILPGIVILSCYCIIISKLSHSKGHQKRKALKTTVILILAFFACWLPYYIGISIDSFILLEIIKQGCEFENTVHKWISITEALAFFHCCLNPILYAFLGAKFKTSAQHALTSVSRGSSLKILSKGKRGGHSSVSTESESSSFHSS
For the molecule B1, the Kd – broadly, the equilibrium constant for the complex coming apart – is 0.3 nM.

The values are drawn from paper PMC4894760 (Journal of controlled release : official journal of the …, 2016).
